Laboratory results from patent US20190112340A1 (US Dept. of Health and Human Services, published 2019).

Tests used:
[1] = biological target: sc8 DS-Cav1; test: BLI (Octet), F on Ni-NTA tips, Fab in solution
[2] = biological target: sc11 DS-Cav1 (Engineered disulfide 155C-290C. Engineered cysteines 512C/513C. Glycoprotein; one protomer is given.); test: BLI (Octet), F on Ni-NTA tips, Fab in solution
[3] = biological target: T1, sc9-19 DS-Cav1 (Engineered disulfide 155C-290C. Glycoprotein; it assembles as a trimer and one protomer is given.); test: BLI (Octet), F on Ni-NTA tips, Fab in solution
[4] = biological target: sc9-24 DS-Cav1; test: BLI (Octet), F on Ni-NTA tips, Fab in solution
[5] = biological target: sc9 DS-Cav1-105Q (Engineered disulfide 155C-290C. Glycoprotein; it assembles as a trimer and one protomer is given.); test: BLI (Octet), F on Ni-NTA tips, Fab in solution
[6] = biological target: T2, RSV F sc9-10 DS-Cav1 (human RSV subtype A (strain A2)); test: BLI (Octet), F on Ni-NTA tips, Fab in solution
[7] = biological target: RSV F sc9-9 DS-Cav1 (human RSV subtype A (strain A2), UniProt P03420 26-96; P03420 145-513); test: BLI (Octet), F on Ni-NTA tips, Fab in solution
[8] = biological target: sc9-10 DS-Cav1 Q98C, Q361C L95M-I221M-R429K (B18537); test: BLI (Octet), F on Ni-NTA tips, Fab in solution
[9] = biological target: sc9-10 DS-Cav1 Q98C, Q361C S46G-E92D-L95M-S215P-I217P-I221M-R429K-K465Q (Long (VR26)); test: BLI (Octet), F on Ni-NTA tips, Fab in solution
[10] = biological target: T1, sc9-19 DS-Cav1; test: BLI (Octet), D25 Fab binding after/before stress
[11] = biological target: sc9-24 DS-Cav1; test: BLI (Octet), D25 Fab binding after/before stress
[12] = biological target: T2, RSV F sc9-10 DS-Cav1; test: BLI (Octet), D25 Fab binding after/before stress
[13] = biological target: T3, bRSV F ATue51908 sc9-10 DS-Cav1 A149C Y458C (bovine RSV, strain ATue51908 …); test: Fab binding to purified bRSV F trimer (Octet BLI as in Example 1)
[14] = biological target: T4, bRSV F RB94 DS-Cav1 (bovine RSV, strain RB94, UniProt P23728 26-109; P23728 137-513); test: as above
[15] = biological target: T5, bRSV F 391-2 sc9 DS-Cav1 Q98C Q361C (bovine RSV, strain 391-2, UniProt P22167 26-513); test: as above
[16] = biological target: T6, bRSV F strain 391-2 sc9-10, DS-Cav1, Q98C-Q361C (bovine RSV, strain 391-2); test: as above
[17] = biological target: T7, bRSV F 391-2 DS-Cav1 (bovine RSV, strain 391-2, UniProt P22167 26-574); test: as above
[18] = biological target: T8, bRSV F ATue51908 DS-Cav1 (bovine RSV, strain ATue51908, UniProt P22167 26-109; P22167 137-513); test: as above
[19] = biological target: T3, bRSV F ATue51908 sc9-10 DS-Cav1 A149C …; test: D25 binding to stressed pre-F trimer as a fraction of the untreated protein (physical stability)
[20] = biological target: T4, bRSV F RB94 DS-Cav1; test: as above
[21] = biological target: T5, bRSV F 391-2 sc9 DS-Cav1 Q98C Q361C; test: as above
[22] = biological target: T6, bRSV F strain 391-2 sc9-10, DS-Cav1, …; test: as above
[23] = biological target: T7, bRSV F 391-2 DS-Cav1; test: as above
[24] = biological target: T8, bRSV F ATue51908 DS-Cav1; test: as above

B1: D25 Fab (Fab, V domains shown)
VH: QVQLVQSGAEVKKPGSSVMVSCQASGGPLRNYIINWLRQAPGQGPEWMGGIIPVLGTVHYAPKFQGRVTITADESTDTAYIHLISLRSEDTAMYYCATETALVVSTTYLPHYFDNWGQGTLVTVSS
VL: DIQMTQSPSSLSAAVGDRVTITCQASQDIVNYLNWYQQKPGKAPKLLIYVASNLETGVPSRFSGSGSGTDFSLTISSLQPEDVATYYCQQYDNLPLTFGGGTKVEIKR
Binder B1 has a Kd [1] of 7400 pM, a Kd [2] of 700 pM and a Kd [3] of 800 pM. For the same binder, the Kd [4] was 800 pM, the Kd [5] was 700 pM and the Kd [6] was 800 pM. For the same binder, the Kd [7] was 200 pM, the Kd [8] was 100 pM and the Kd [9] was 100 pM. The “fractional D25 reactivity, 50 °C” value [10] was 0.9, the “fractional D25 reactivity, 70 °C” value [10] was 0.9 and the “fractional D25 reactivity, freeze-thaw” value [10] was 0.04. The “fractional D25 reactivity, osmolality 10 mM” value [10] was 0.6, the “fractional D25 reactivity, osmolality 3000 mM” value [10] was 0.5 and the “fractional D25 reactivity, pH 3.5” value [10] was 0.7. For the same binder, the “fractional D25 reactivity, pH 10.0” value [10] was 0.8, the “fractional D25 reactivity, 50 °C” value [11] was 0.9 and the “fractional D25 reactivity, 70 °C” value [11] was 0.9. For the same binder, the “fractional D25 reactivity, freeze-thaw” value [11] was 0, the “fractional D25 reactivity, osmolality 10 mM” value [11] was 0.5 and the “fractional D25 reactivity, osmolality 3000 mM” value [11] was 0.5. For the same binder, the “fractional D25 reactivity, pH 3.5” value [11] was 0.7, the “fractional D25 reactivity, pH 10.0” value [11] was 0.7 and the “fractional D25 reactivity, 50 °C” value [12] was 0.9. The “fractional D25 reactivity, 70 °C” value [12] was 0.9, the “fractional D25 reactivity, freeze-thaw” value [12] was 0.2 and the “fractional D25 reactivity, osmolality 10 mM” value [12] was 1.4. For the same binder, the “fractional D25 reactivity, osmolality 3000 mM” value [12] was 0.7, the “fractional D25 reactivity, pH 3.5” value [12] was 1.5 and the “fractional D25 reactivity, pH 10.0” value [12] was 0.7. For the same binder, the Kd [13] was 420000 pM, the Kd [14] was 24300 pM and the Kd [15] was 24300 pM. It also gave a Kd [16] of 57500 pM, a Kd [17] of 400 pM and a Kd [18] of 10800 pM. The “fractional antibody reactivity after 10 cycles of freeze-thaw” value [19] was 1 fraction, the “fractional antibody reactivity after 50 °C” value [19] was 0.9 fraction and the “fractional antibody reactivity after 70 °C” value [19] was 0.9 fraction. For the same binder, the “fractional antibody reactivity after osmolarity 10 mM” value [19] was 0.7 fraction, the “fractional antibody reactivity after osmolarity 3000 mM” value [19] was 0.8 fraction and the “fractional antibody reactivity after pH 3.5” value [19] was 1 fraction. The “fractional antibody reactivity after pH 10.0” value [19] was 0.9 fraction, the “fractional antibody reactivity after 10 cycles of freeze-thaw” value [20] was 1 fraction and the “fractional antibody reactivity after 50 °C” value [20] was 0.6 fraction. For the same binder, the “fractional antibody reactivity after 70 °C” value [20] was 0.1 fraction, the “fractional antibody reactivity after osmolarity 10 mM” value [20] was 0.8 fraction and the “fractional antibody reactivity after osmolarity 3000 mM” value [20] was 0.5 fraction. For the same binder, the “fractional antibody reactivity after pH 3.5” value [20] was 1.2 fraction, the “fractional antibody reactivity after pH 10.0” value [20] was 1.3 fraction and the “fractional antibody reactivity after 10 cycles of freeze-thaw” value [21] was 1 fraction. For the same binder, the “fractional antibody reactivity after 50 °C” value [21] was 0.9 fraction, the “fractional antibody reactivity after 70 °C” value [21] was 0.8 fraction and the “fractional antibody reactivity after osmolarity 10 mM” value [21] was 1 fraction. For the same binder, the “fractional antibody reactivity after osmolarity 3000 mM” value [21] was 0.9 fraction, the “fractional antibody reactivity after pH 3.5” value [21] was 1.2 fraction and the “fractional antibody reactivity after pH 10.0” value [21] was 1 fraction. For the same binder, the “fractional antibody reactivity after 10 cycles of freeze-thaw” value [22] was 1 fraction, the “fractional antibody reactivity after 50 °C” value [22] was 1 fraction and the “fractional antibody reactivity after 70 °C” value [22] was 1 fraction. For the same binder, the “fractional antibody reactivity after osmolarity 10 mM” value [22] was 0.8 fraction, the “fractional antibody reactivity after osmolarity 3000 mM” value [22] was 0.8 fraction and the “fractional antibody reactivity after pH 3.5” value [22] was 0.9 fraction. For the same binder, the “fractional antibody reactivity after pH 10.0” value [22] was 0.9 fraction, the “fractional antibody reactivity after 10 cycles of freeze-thaw” value [23] was 1 fraction and the “fractional antibody reactivity after 50 °C” value [23] was 0.7 fraction. The “fractional antibody reactivity after 70 °C” value [23] was 0.1 fraction, the “fractional antibody reactivity after osmolarity 10 mM” value [23] was 0.9 fraction and the “fractional antibody reactivity after osmolarity 3000 mM” value [23] was 0.6 fraction. For the same binder, the “fractional antibody reactivity after pH 3.5” value [23] was 0.9 fraction, the “fractional antibody reactivity after pH 10.0” value [23] was 1.2 fraction and the “fractional antibody reactivity after 10 cycles of freeze-thaw” value [24] was 1 fraction. For the same binder, the “fractional antibody reactivity after 50 °C” value [24] was 0.9 fraction, the “fractional antibody reactivity after 70 °C” value [24] was 0.1 fraction and the “fractional antibody reactivity after osmolarity 10 mM” value [24] was 0.7 fraction. For the same binder, the “fractional antibody reactivity after osmolarity 3000 mM” value [24] was 0.4 fraction and the “fractional antibody reactivity after pH 3.5” value [24] was 0.9 fraction.
